Measurements from PMC10583366, “OsCBL1 modulates rice nitrogen use efficiency via negative regulation of OsNRT2.2 by OsCCA1”.

Molecular target: OsCCA1 (His-OsCCA1; Nhd1) (Oryza sativa, UniProt A0A0P0XBU0 1-719)
Test: EMSA; 10 mM Tris-HCl pH 7.5, 50 mM KCl, 1 mM DTT, 4 C, 40 min; 4% TBE-PAGE at 4 C, ethidium bromide stain
Conditions: protein: recombinant; tags: His (pET-28a); ATATCT (motif)

Chain of OsCCA1 (His-OsCCA1; Nhd1) (A0A0P0XBU0 whole entry): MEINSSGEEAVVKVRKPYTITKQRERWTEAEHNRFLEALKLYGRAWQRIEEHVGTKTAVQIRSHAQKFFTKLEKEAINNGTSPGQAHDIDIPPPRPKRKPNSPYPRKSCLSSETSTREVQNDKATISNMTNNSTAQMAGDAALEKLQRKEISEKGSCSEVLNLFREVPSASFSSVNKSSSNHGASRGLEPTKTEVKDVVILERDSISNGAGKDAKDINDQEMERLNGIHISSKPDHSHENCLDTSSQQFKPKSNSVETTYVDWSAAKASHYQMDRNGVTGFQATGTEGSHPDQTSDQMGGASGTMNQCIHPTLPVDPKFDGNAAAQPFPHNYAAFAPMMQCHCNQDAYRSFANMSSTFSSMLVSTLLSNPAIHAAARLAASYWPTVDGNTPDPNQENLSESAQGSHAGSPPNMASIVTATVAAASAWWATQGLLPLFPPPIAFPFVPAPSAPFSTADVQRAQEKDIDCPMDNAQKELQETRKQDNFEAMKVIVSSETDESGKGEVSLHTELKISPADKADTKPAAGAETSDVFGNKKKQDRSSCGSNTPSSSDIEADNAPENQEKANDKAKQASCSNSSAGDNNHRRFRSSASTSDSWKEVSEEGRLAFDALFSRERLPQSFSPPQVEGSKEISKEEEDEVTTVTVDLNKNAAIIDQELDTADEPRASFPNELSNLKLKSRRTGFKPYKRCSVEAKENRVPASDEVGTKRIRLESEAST

Binder	binding result
P6 (dsDNA) DNA 1: TAAAAAATACCTGCAGGTGCTCTAGTTCAACTGAAGGGCCAGATTTAGCAATATCTGAGTCCTTCAAATAAATTCATCAACTAACAAACTTCAACCGAAG DNA 2: CTTCGGTTGAAGTTTGTTAGTTGATGAATTTATTTGAAGGACTCAGATATTGCTAAATCTGGCCCTTCAGTTGAACTAGAGCACCTGCAGGTATTTTTTA	binds
P7 (dsDNA) DNA 1: ATATGATGTGTATGGGAATTGGGATGCTGAAAACAAATGCAACTGGACACATATCTGCAACTTGTAAATAACTTTTATTTCTTTTAATGGAAAAAATGTG DNA 2: CACATTTTTTCCATTAAAAGAAATAAAAGTTATTTACAAGTTGCAGATATGTGTCCAGTTGCATTTGTTTTCAGCATCCCAATTCCCATACACATCATAT	binds
P8 (dsDNA) DNA 1: CTTCAGGCCGTCATGAAAAAAAACCAGTGCATATCTCATGGCAAGAAGAAGTGCAGGTTGTGAA DNA 2: TTCACAACCTGCACTTCTTCTTGCCATGAGATATGCACTGGTTTTTTTTCATGACGGCCTGAAG	binds
